Tests used:
[1] = molecular target: bovine serum albumin (UniProt P02769)
[2] = tested on: T1, p26 protein from Artemia franciscana
T1 sequence: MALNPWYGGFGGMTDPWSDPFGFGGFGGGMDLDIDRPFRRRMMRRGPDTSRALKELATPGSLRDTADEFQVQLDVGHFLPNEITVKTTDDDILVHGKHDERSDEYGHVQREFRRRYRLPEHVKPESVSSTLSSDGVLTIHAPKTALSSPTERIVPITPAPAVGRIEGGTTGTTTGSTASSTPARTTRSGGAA

[3] = tested on: Heat gamma
Chain of Heat gamma (chain, as listed by the source): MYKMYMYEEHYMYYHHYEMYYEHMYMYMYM

Chain of bovine serum albumin (P02769 25-607): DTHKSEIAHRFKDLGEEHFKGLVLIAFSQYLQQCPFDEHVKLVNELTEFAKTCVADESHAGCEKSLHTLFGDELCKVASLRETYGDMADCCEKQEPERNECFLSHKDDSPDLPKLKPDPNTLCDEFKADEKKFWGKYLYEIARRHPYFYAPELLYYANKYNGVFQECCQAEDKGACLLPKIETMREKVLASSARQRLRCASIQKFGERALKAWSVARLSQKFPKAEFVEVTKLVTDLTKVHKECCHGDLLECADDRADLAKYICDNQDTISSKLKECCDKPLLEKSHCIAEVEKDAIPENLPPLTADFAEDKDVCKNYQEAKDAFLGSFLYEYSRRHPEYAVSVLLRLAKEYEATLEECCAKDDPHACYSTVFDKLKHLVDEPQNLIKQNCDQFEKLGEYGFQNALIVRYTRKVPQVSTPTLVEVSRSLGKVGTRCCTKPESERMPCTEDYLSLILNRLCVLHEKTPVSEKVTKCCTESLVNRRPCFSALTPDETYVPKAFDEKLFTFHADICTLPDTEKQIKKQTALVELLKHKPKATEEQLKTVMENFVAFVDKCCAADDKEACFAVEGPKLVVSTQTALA
Chain of activated recombinant MMP9 (chain, as listed by the source): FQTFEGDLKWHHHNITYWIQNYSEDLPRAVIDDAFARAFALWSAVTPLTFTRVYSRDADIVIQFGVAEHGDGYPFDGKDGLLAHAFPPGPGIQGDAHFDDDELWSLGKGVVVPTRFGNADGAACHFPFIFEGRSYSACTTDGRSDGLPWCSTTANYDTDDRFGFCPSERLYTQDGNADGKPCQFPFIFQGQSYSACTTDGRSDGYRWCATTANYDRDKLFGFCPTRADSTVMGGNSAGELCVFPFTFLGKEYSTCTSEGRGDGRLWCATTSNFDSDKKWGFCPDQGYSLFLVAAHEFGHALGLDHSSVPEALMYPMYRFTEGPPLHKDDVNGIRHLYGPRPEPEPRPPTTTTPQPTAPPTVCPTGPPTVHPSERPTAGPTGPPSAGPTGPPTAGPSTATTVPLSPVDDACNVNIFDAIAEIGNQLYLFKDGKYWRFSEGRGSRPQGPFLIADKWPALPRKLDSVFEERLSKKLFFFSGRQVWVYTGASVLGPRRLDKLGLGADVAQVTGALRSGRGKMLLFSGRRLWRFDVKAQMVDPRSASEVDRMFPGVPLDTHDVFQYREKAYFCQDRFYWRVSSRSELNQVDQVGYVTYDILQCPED

Substance | cleavage of pET-28a by Nde I after 1 hour pretreatment at 40° C. (agarose gel) [1] | cleavage of pET-28a by Nde I after 1 hour pretreatment at 40° C. (agarose gel) [2] | cleavage of Fluorogenic Peptide substrate I by 0.270 µg activated recombinant MMP9, 60 µg Heat Gamma [3]
Nde I restriction endonuclease | An equivalent amount of BSA (5 µg) did not protect the enzyme any better than the buffer control | In the presence of 5 µg of p26 protein, Nde I remained fully active, and completely cleaved pET-28a | –
activated recombinant MMP9 | – | – | Heat gamma efficiently inhibits the MMP9 activity as indicated by a decrease in relative fluorescence

Source: patent US20060205646
